Molecular target: the molecule itself
Experiment: AUC

B1: Y29W mutant of C.Esp1396I (natural protein)
chain: MESFLLSKVSFVIKKIRLEKGMTQEDLAWKSNLDRTYISGIERNSRNLTIKSLELIMKGLEVSDVVFFEMLIKEILKHD
  stoichiometry N: 2

From paper PMC3488213 (Nucleic Acids Research, 2012)
